Test results taken from the nanobody polyreactivity screen of Harvey et al. (2022).

Assay: yeast display, Sf9 membrane polyspecificity reagent, FACS + sequencing; frameworks hold sequencing errors
In short: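 Galactose-induced (36–48 hours) yeast carrying a synthetic nanobody display library were exposed to 10% biotinylated, detergent-solubilized Sf9 membrane reagent at 4 °C for 1 hour. FACS followed streptavidin microbead enrichment, using low and high (top ~1%) gates for expression (anti-HA) and reagent binding (streptavidin). Colony PCR, MiSeq 2 × 250 sequencing and CDR-length filtering followed. Labels for polyreactivity reflect the gate of origin.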

Sequence	polyreactivity (PSR sort gate)
QVQHVESGGALVQAAGSLSLRCAASGSTFGYNAMGWYRQAPSKEMELVAVITDSGGSSYYADSVKGRFTISRDNPKNTVYVQMHSLNPEDTAVYYCAKFYGLVVSGHVILSGFEYWGQGTLVTVSS	low polyreactivity
QDHHVDSGGGLVQAGGILRLSCAASGSIIDYYPMGWYRQPPGKERELVARIRRRSSSTFYADSVKGRFTISRDNEKNTDYLQMNSLKPEDTAVYYCAADSYAWSTGGIFDYWGQGTQVTVSS	high polyreactivity
QVQLVESGGGLVQAGGSLRLSCAASGSTFVQYAMGWYRQAPGKERELVAAISGSGGRTYYADSVKGRFTLSRDNAKNTVYSHMNSLKPEDTAVYYCAAAYNTDFYYWGQGTQVTVSS	high polyreactivity
QVQLVESGGGLVQAGGSLRLSCADSGSIFPFYAMGWYRQAPGKERELVASISSGGSTNYADSVKGRFTISRDNAKKTVYLQMNSLKPEDTAVYYCNAVGTFVRYGTDGRDGVNYDYWGQGTQVTVSS	low polyreactivity
QVQLVESGGGLVQAGGSLRLSCAASGSIFVYYTMGWYRQAPGKERELVASITSGGNTNYADSVKGRFTISRDNAKNTVYLQMNSLKPEDTAVYYCAADYQTVTQADWGTVYDYDYWGQGTQVTVSS	low polyreactivity
QVQLGESGVGLVQAGGSLRLSCASSGRTLPVNAMGWYRQAPGKERELVAGISWGGDSTYYADSVKGRFTISRDNAKNSVYLQMNSLKPEDTAVYYCAASSSTWPGDFWGQGTQVTVSS	low polyreactivity
QVQLVESGGGLVQAGGSLRLSCAASGSTFYKYAMGWSRQAPGKERELVASITGGTRTYYADSVKGRFTISRDNAKNTVYLQMNSLKPEDTAVYYCNVVGGRYLYSAYDYWGQGTQVTVSS	low polyreactivity
QVQLEESGGGLVQAGGSLRLSCAASGFIFVRNAMGWYRQAPGKERELVAAITRSGGSTSYADSVKGRFTISRDNAKNTVYLQMNSLKPEDTAVYYCAPQYGYWGQGTQVTVSS	high polyreactivity
QVQLVESGGGLVQAGGSLRLSCAASGITSRQYAMGWYRQAPGKERELVAAISFSGGRTYYADSVKGRFTISRDNAKNTVYLQMNSLKPEVTAVYYCATRNRYSPRDYWGQGTQVTVSS	high polyreactivity
QVQLVESGGGLVQAGGSLRLSCAASGGTFGTNTMGWYRQAPGKERELVAAISRSGGSTYYADSVKGRFTISRDNAKNTVYLQMNCLKPEDTAVYYCNAVPRKYTDEFDYWGQGTQVTVSS	high polyreactivity
QVQLVESGGGLVQAGGSLRLSCAASGYIFYGYAMGWYRQAPGKERELVAAITGDGASTNYADSVKGRFTISRDNAKNTVYLQMNSLKPEDTAVYYCNAGRESDDVYEGSQRIGQFDYWGQGTQVTVSS	low polyreactivity
QVRLVESGGGLVQAGGRLRLSCAASGRIFSSYSMGWYRQAPGKERELVASISWSGVRTRYADSVKGRFTISRDNAKNTVYLQLNSLKPEDTAVYYCAAVVPYYYRSPSNHMGYWGQGTQVTVSS	high polyreactivity
QVQLVESGGGIVQAGGSLRLSCAASGLTFRKYAMGWYRQAPGKERELVAAIRFRGGSTYYADSVKGRFTISRDNAKNTVYLQMNSLKPEDTAVYYCNTAPVGLLYGRYDYWGEGTQVTVSS	high polyreactivity
QVQLVESGGGLVQAGGSLRLSCAASGRTFYWNAMGWYRQAPGKERELVASINGGGSTYYADSVKGRFTISRDNAKNTVYLKMNSLKPEDTAVYYCNTSYIIWYDSWGQGTQVTVSS	low polyreactivity
QVQLVESSGGLVQAGGSLRLSCAASGLTFKRYAMGWYRQAPGKERELVAAINSGGSTNYADSVKGRFTISRDNAKNTVYLQMNSLKPEDTAVYDCAASTSRYYWYALRDYWGQGTQVTVSS	high polyreactivity
QVHLQESGAGLEQAGGSLRLSCAASGYISDIGTMGCYRQAPGKEREFVATIVVGSTTNYADSVKGRFTISRDNAKNTLYLQPESGRYRGVLLRGWLLAVGKFTYWGQGTQETVSS	low polyreactivity
QVQLVESGGGLVQAGGSLRLSCAASGSTIGFYAMGWYRQAPGKERELVAVISSSSSTNYADSVKGRFTISRDNAKNTVYLQMNSLKPKIPAVYYCNAKWTTLFDYWGQGTQVTVSS	high polyreactivity
QVQLVESGGGLVQAGGSLRLSCAASGRIFVIYAMGWNRQAPGKERELVASITDGTITNYADSVKGRFTISRDNAKNTVYLQMNSLKPEDTAVYYCAAGTQAHAYVVRPIEMDYWGQGTQVTVSS	low polyreactivity
QVQLVESGGGLVQAGGSLRLSCAASGSKFYTNVMGWYRQAPGKERELVARIDSGGSTNYADSVKGRFTISRDNAKNTVYLQMNSLKPEDTAVYYCAADWYIYDYWGQGTQVTVSS	low polyreactivity
QVQLQESGGGLVQAGGSLRLSCAASGSIFEELDMGWYRQAPGKEREFVAANGTGSTTYYADSVKGRFTISRDNAKNTVYLQMNSLKPEVTAVYYCAVTYSVYLPFRYWGQGTQVTVSS	high polyreactivity
HVQLVESGGGLVQAGGSLRLSCAASGFIFQYYCMGWYRQATRKERELVAAIDSRGGSTYYADSVKGRFTISRDNAKNTVYLQMNSLNPADTAVYYCAAMGLYQGTLNHFYYWGQGTQVTVSS	low polyreactivity
QVQLVESGGGLVQAGGSLRLSCAASGRTFLLNAMGWYRQAPGKERELVAAITRSGVITYYADSVKGRFTISRDIAKNTVYFQMNSLKPEDTAVFYCAAQLRYSYLRPSYYYWGQGTQVTVSS	high polyreactivity

Sequence	polyreactivity (PSR sort gate)
QVHLVESGGGLVQAGGSLRLSCAASGFTFEGYAMGGYRQQPGKEREYADSVKGRFTISRDNAKNTVYLQMNSLKPEDTAVYYCASTSYVSSSRTIYSGFVEFEYLGQGTQVTVSS	low polyreactivity
QVQLVESGGGLVQAGGSLRLSCAASGFIFDKYVMGWYRQAPGKERELVAAISSGGSTYYADSVKGRFTISRDNAKNTVYLQMNSLKPEDTAVYYCNAGGFWPWVYGYDSWGQGTQVTVSS	high polyreactivity
QVQLVESGGGLVQAGGSLRLSCAASGSIFWEYAMGWYRQAPGKDREFVATISARGGRTYYADSVKGRFTSSRDNAKNTVYLQMNSLKPDATAVYYCANVGVFHLRDNYRFDYWGQGTQVTVSS	low polyreactivity
QVQLVESGGGLVQAGGSLRLSCAASGSIFVGNAMGGYRQAPGKERELVAAITSSGGRTYYADSVKGRFTISRDNAKNTVYLQMNSLKPEDTAVYYCNTSRTRRFSLWAYDYWGQGTQVTVSS	high polyreactivity
QVQLVESGGGLVQAGGSLRLSCAASGSNFSRNTMGWYRQAPWKERELVAGISSSGSRTYYADSVKGRFTISRDNAKNTVYLLMNSLKPEDTAVYYCAAEHQRSRGRRYYIGYDYWGQGTQVTVSS	low polyreactivity
QVQLVESGGGLVQAGGSLRLSCAASGRTFYRYAMGWYRQAPGKEREFVATISRSGGSTFYADSVKGRFTISRDNAKNTVYLQMNSLKPEDTAVYYWAAVGWYPYQMVYWGQGTQVTVSS	high polyreactivity
QVQLVESGGGLVQAGGSLRLSCAASGSIFVVYAMGWYRQPPGKERELVAAIDSGGSTYYADSVKGRFTISRDNAKNTVYLQLNSLKPEDTAVSYCADDGSTWGDYRTYGYWGQGTQVTVSS	low polyreactivity
QVQLVESGGGLVQAGGSLRLSCAASGNTLAANAMGWYRQAPGKERELVAAITYSGGSTYYADSVKGRFTISRDNSKNTVYLQMNSLKPLDTAVYYCAAEGYYSNYHYWGQGTQVTVSW	low polyreactivity
QVQLVESGGGLVQAGGSLSLSCAASGGIFARNVMGWYRQAPGKERELVADISGSGGSTYYADSVKGRFTISRDNAKNTVYLQMNSLKPEDTAVYYCAARTPGVSVYKDGYWGQGTQVTVSS	low polyreactivity
QVQLVESGGGLVQAGGSLRLSCAASGSIFNSNGMGWYRPAPGKERELVAAITGGGSTNYADSVKGRFTISRDNAKNTVYLQMNSLKPEDTAVYYCAARPLRTDWAYYYWGQGTQVTVSS	low polyreactivity
QVQLVESGGGLVQAGGTLRLSCAASGSIFRLNAMGWYRQPPGKERELVAAITSGGRTNYADSVKGRFTISRDNAKNTDYLQMNSLKPEDTAVYYCNARATAYGWRGDAGFEFDYWGQGTQVTVSS	low polyreactivity
QVQLVESGGGLVEAGGSLRLSCAASGGTFLRYAMGWSIQAPGKERELVAAITYRNGRTYYADSVKGRFTISRDNAKNTVYLQMNSLKPEDTAVYYCAADSTPRGNPAYDYYYWGQGTQVTVSS	high polyreactivity
HVQLVESGGGLVQAGGSLRLSCAASGIIFPIYAMGWYRQAARKERELVASISQSGASTYYADSVKGRFTISRDNAKNTVYLQMNSLNPEDTGVYYCAALNGVGPWQLSYEEFDYWGQGTQVTVSS	low polyreactivity
QVQLVESGGGLVQAGGSLRLSCAASGRTFRYYAMGWYRQAPGKERELVAGISSSGRTYYADSVKGRFTISRDNAKNTVYLQMNSLKPEDTAVYYCNAVYWPVRPVDRHDYWGQGTQVTVSS	high polyreactivity
QVQLVESGGGLVQAGGSLRLTCAASGSIFDKNVMGSYRQAPGKERELVAAISSSGGSTYYADSVKGRFTISRDIAKNTVYLQMNSLKPVDSAVYYCAKVPGRDRADRYWDHYSHDYWGQGTQVTVSS	high polyreactivity
QVQLVETGGGLVQAGGSLRLSCAASGSIFVLYAMGWYRQAPGKEREFVAAISSSGGSTYADSVKGRFTISRDNAKNTVYLQMNSLKPEDTAVYYCARDVYLSDPPRDYDYWGQGTQVTVSS	low polyreactivity
QVQLVESGGGLVQAGGSLSLSCAASGSTFPEYVMGWYRQAPGKERELVAAITRRGGRTYYADSVKGRFTISRDNAKNTVYLQMNSLKPEDTEVYYCAAKSAVVVCMDSWGQGTQVTVSS	high polyreactivity
QVQLVESGGGLVQAGGSLRLSCAASGSTFPFNAMGWYRQAPGKERELVAAITTSAGSTYYADSVKGRFTISRDNAKKTVYLQMNSLKPEDTAVYYCAARYVPPWGRRYYYWGQGTQVTVSS	high polyreactivity
QVLLEESGGGLVQAGGSLRLSCAASGRIFLRKVMGWYRQAPGKERELVAAISLSGASTYYADSVKGRFTISRDNAKNTVYLQMNCLKPEDTAVYYCAADITILYDYWGQGTQVTVSS	low polyreactivity
QVQLVESGGGLVQAGGSLRLSCAASGRTFYIYAMGWYRQAPGKERELVAAISWSGGTTYYADSVKGRFTISRDHAKNTVYLQMNSLKPEDTAVYYCNVYPAYNYFDYDYWGQGTQVTVSS	high polyreactivity
QVQLQESGGGLVQAGGSLRLSCAASGSISSRDAMGWYRQAPGKEREFVATIASGTTTYYADSVKGSFTISRDNAENTVYLQTNSLKPEDTAVYYCAAPTIQIYPFYYWGQGTQVTVSS	high polyreactivity
